The target of this experiment is CCR5 on mouse periosteal skeletal stem cells / mouse cells in vivo (mouse) (UniProt P51682). Description: cell-based or functional assay.
Sequence of UniProt P51682 (P51682 whole entry): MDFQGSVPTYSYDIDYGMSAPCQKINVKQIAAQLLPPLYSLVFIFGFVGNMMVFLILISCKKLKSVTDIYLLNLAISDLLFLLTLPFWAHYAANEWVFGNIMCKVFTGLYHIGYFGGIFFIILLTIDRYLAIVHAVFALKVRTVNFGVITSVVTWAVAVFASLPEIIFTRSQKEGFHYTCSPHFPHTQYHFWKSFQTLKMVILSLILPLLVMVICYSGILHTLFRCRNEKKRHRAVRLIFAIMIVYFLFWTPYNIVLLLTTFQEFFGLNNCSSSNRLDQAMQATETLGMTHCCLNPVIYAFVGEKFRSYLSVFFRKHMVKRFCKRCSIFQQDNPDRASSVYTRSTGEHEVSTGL

CCL5 (ligand) registered an average in vivo migration speed of Mx1+aSMA+ P-SSCs under CCL5 administration of 57 µm/h.

The record behind these values is patent US20220096600A1.
